System: primary mouse OPs
Test: Proliferation of oligodendrocyte precursor (OP) cultures, scoring NG2+ and NG2+/BrdU+ cells
Assay type: cell-based
Conditions: TLQP-21 3 μM, AQEE-30 3 μM, BDNF 50 ng/μl, analyzed 48 hours later, vs DMSO
Description: The growth factor VGF was of particular interest because it is reported to be highly expressed in OPs. Furthermore, its upregulation upon exercise activates the anti-depressant response in mammals, and maintains BDNF expression in a VGF-BDNF positive feedback loop. […] VGF is cleaved to produce numerous C-terminal bioactive peptides including TLQP-62, TLQP-21, and AQEE-30, amongst others. As such, oligodendrocyte precursor (OP) cultures were treated with well-characterized peptides that trigger BDNF production TLQP-21 (3 μM), AQEE-30 (3 μM), BDNF (50 ng/μl), or DMSO along with the proliferation marker BrdU and then analyzed 48 hours later by scoring the number of NG2+/BrdU+ cells. In parallel, the total number of NG2+ cells was counted to assess for endogenous proliferation. […] Indeed, VGF protein levels are robust early in the OP differentiation cascade (FIG. 11).
Mouse OPs were isolated from the cortices of PO WT neonates by expansion within mixed glial culture for 8 days, purified, and subsequently differentiated as an OP-enriched culture. At DIV1 post-purification, cells were treated with DMSO, BDNF, VGF AQEE-30 or VGF TLQP-21 at 3 uM and allowed to grow for an additional 48 hrs. […] DAPI stains all nuclei. […] Scale bar, […]. FIG. 10C depicts quantitation of the average dendritic length 48 hrs post-peptide treatment. **P<0.01, n=4 independent coverslips per condition. […]

B1: BDNF: brain-derived neurotrophic factor, comparison treatment in OP cultures (protein, UniProt P23560 19-247, looked up)
Neurotrophic factor BDNF …: APMKEANIRGQGGLAYPGVRTHGTLESVNGPKAGSRGLTSLADTFEHVIEELLDEDQKVRPNEENNKDADLYTSRVMLSSQVPLEPPLLFLLEEYKNYLDAANMSMRVRRHSDPARRGELSVCDSISEWVTAADKKTAVDMSGGTVTVLEKVPVSKGQLKQYFYETKCNPMGYTKEGCRGIDKRHWNSQCRTTQSYVRALTMDSKKRIGWRFIRIDTSCVCTLTIKRGR
- total number of NG2+ cells: no significant differences
- total number of proliferating Ng2+/BrdU+ OPs (with BrdU): no significant differences

From US20170028021A1, “COMPOSITIONS AND METHODS FOR TREATING NEURODEGENERATIVE DISEASE” (MYELIN THERAPEUTICS, INC., priority 2015, published 2017)
